Measured values from US20220227850A1 (CRESCENDO BIOLOGICS, published 2022).

B1: SEQ ID NO. 30 (VH single domain antibody binding HSA, variant of SEQ ID NO. 1) (VHH)
VHH: EVQLVESGGGLVKPGGSLRLSCAASGFTFSNYNMNWVRQAPGKGLEWVSSISSAGTHIYYADSVKGRFTISRDNAKNSLYLQMNSLRAEDTAVYYCARDPHSTGWYKDFDYWGQGTLVTVSS
notes: Human VH single domain antibody (Humabody) from a transgenic mouse, not a camelid VHH; also called Humabody VH; variant of Humabody 1
B2: SEQ ID NO. 5 (VH single domain antibody binding HSA) (VHH)
VHH: EVQLLESGGGLVKPGGSLRLSCAASGFTVSSYTMNWVRQAPGKGLEWVSSISSSGRYIYYADSVKGRFTISRDNAKNSLYLQMNSLRAEDTAVYYCARDPRMVGNPHEFDIWGQGTMVTVSS
notes: Human VH single domain antibody (Humabody) from a transgenic mouse, not a camelid VHH; also called Humabody 2; Humabody VH

Assays:
[1] = biological target: T1, Cyno Serum Albumin (cyno, UniProt A2V9Z4 25-608); assay: SPR, Biacore T200, single cycle kinetics, albumin amine coupled to CM5 chip, 25 C, pH 6.0
T1 construct: Serum purified CSA (Abcam ab184894) is named for immunisation; also called CSA; cynomolgus serum albumin
Description: (§1) Binding studies with human, cyno and mouse serum albumin in pH 7.4 and pH 6.0 were carried out using single cycle kinetics on a Biacore T200. Serum albumin (HSA, CSA, MSA) were coupled to CM5 chip by amine coupling using the amine reagent coupling kit GE Healthcare BR-1000-50. The surface of the chip was activated according to manufacturer's instructions. Serum albumin (HSA, CSA, MSA) were captured and cross-linked to the sensor chip surface by injecting of serum albumin (HSA, CSA, MSA) in 10 mM sodium acetate, pH 5.0. Following with the injection of 1M Ethanolamine to stabilise the serum albumin on the surface. With this procedure around 300 RU were immobilized.
(§2) For kinetics measurement four-fold serial dilution of the VH single domain antibodies (194D04-2 or 191 E02-2) in either PBST pH 7.4 or PBST pH 6.0 were injected with 120s association and 300s dissociation at the flow rate of 45 μl/min at 25° C. Binding response was corrected by subtracting both the blank flow cell and from buffer run on the same flow cell. The traces were fitted using 1:1 model.

[2] = biological target: T2, Human Serum Albumin (human, UniProt P02768 25-609); assay: as above
T2 construct: also called HSA
Description: as §1, §2

[3] = biological target: T3, mouse serum albumin (mouse, UniProt P07724 25-608); assay: SPR, Biacore T200, single cycle kinetics, MSA amine coupled to CM5 chip, pH 7.4
T3 construct: also called MSA
Description: as §1, §2

[4] = biological target: T1, Cyno Serum Albumin; assay: SPR, Biacore T200, single cycle kinetics, albumin amine coupled to CM5 chip, 25 C, pH 7.4
Description: as §1, §2

[5] = biological target: T2, Human Serum Albumin; assay: as above
Description: as §1, §2

Row | Binder | Kd [1] [nM] | koff [1] [s⁻¹] | kon [1] [M⁻¹ s⁻¹] | Kd [2] [nM] | koff [2] [s⁻¹] | kon [2] [M⁻¹ s⁻¹] | binding result [3] | Kd [4] [nM] | koff [4] [s⁻¹] | kon [4] [M⁻¹ s⁻¹] | Kd [5] [nM] | koff [5] [s⁻¹] | kon [5] [M⁻¹ s⁻¹]
1 | B1 | 99 | 0.0644 | 640000 | 600 | 0.32 | 530000 | no binding | 100 | 0.041 | 290000 | 590 | 0.19 | 330000
2 | B2 | 4.9 | 0.0032 | 640000 | 37 | 0.031 | 840000 | no binding | 11 | 0.0065 | 570000 | 30 | 0.019 | 620000
